From patent US20250263481A1 come the findings set out here.

The assay addresses human CLDN18.2 expressed on cells (human). The assay is described as follows: cell-based or functional assay.

Regarding Human IgG1 isotype antibody, the ADCC on KATOIII CLDN18.2 cells, LDH: max (% cytotoxity) (run A) is 0.3%; the ADCC on KATOIII CLDN18.2 cells, LDH: max (% cytotoxity) (run B) is -5.51%; the ADCC on KATOIII CLDN18.2 cells, LDH: max (% cytotoxity) (run C) is -7.64%; the ADCC on NCI-N87 CLDN18.2 cells, LDH: max (% cytotoxity) (run A) is -6.73%. Besides, the ADCC on NCI-N87 CLDN18.2 cells, LDH: max (% cytotoxity) (run B) was -11.7%; the ADCC on NCI-N87 CLDN18.2 cells, LDH: max (% cytotoxity) (run C) is -9.22%; the ADCC, FACS: Max (%) turned out to be 8.3%; the ADCC, LDH: Max (%) was 1.5%. In addition, the CDC on CT26 CLDN18.2 cells, LDH: max (% cytotoxity) (run A) is 10.8%; the CDC on CT26 CLDN18.2 cells, LDH: max (% cytotoxity) (run B) is -0.23%; the CDC on CT26 CLDN18.2 cells, LDH: max (% cytotoxity) (run C) is -0.38%; the CDC on KATOIII CLDN18.2 cells, LDH: max (% cytotoxity) (run A) was -0.85%. The CDC on KATOIII CLDN18.2 cells, LDH: max (% cytotoxity) (run B) was -2.46% and the CDC on KATOIII CLDN18.2 cells, LDH: max (% cytotoxity) (run C) was -1.53%.
